From the nanobody polyreactivity screen of Harvey et al. (2022)

Assay: yeast display, Sf9 membrane polyspecificity reagent, FACS + sequencing; frameworks hold sequencing errors
How it was run: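 Sorting gates, low and high (top ~1%), were placed on anti-HA fluorescence to track expression and on streptavidin fluorescence to track reagent binding. A clone's polyreactivity label is taken from the gate it came out of. The reagent was 10% biotinylated, detergent-solubilized Sf9 membrane, applied for 1 hour at 4 °C to galactose-induced yeast display cells.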

| Sequence | polyreactivity (PSR sort gate) |
| --- | --- |
| QVQLVESGGGLVKAGGSLRLSCAASGITFYEYAMGWYRQAPGKERELVAAITTGGTTNYADSVKGRFTISRDNAKNTVYLQMNSLKPEDTAVYYCAKDLDSGGRGYYWGQGTQVTVSS | low polyreactivity |
| QVQLVESGGGLVQAGGSLRLSCAASGRIFGVNAMGWYRQAPGKERELVAAITSSGGSTYYADSVKGRFTISRDHAKNTVYLQMNSLKPEDTAVYYCAAKYWYGKPYGSYGYWGQGTQVTVSS | high polyreactivity |
| QVQLVESGGGLVQAGGSLRLSCAASGFIFGPNAMGWYRQAPAKERELVAAISYSGGRTYYADSVKGRFTISRDNAKNTVYLQMNSLKPEDTSVYYCAADAYWYGRSYYWGQGTQVTVSS | high polyreactivity |
| QVQLVESGGGLVQAGGSLRLICAASGSIFVNYAMGWYRQAPGKERELVAAITRSGGGTYYADSVKGRFTISRDNAKNTVYLQMNSLKPEVTAVYYCAARLGYAGNRDGYWGQGTQVTVSS | high polyreactivity |
| QVQLVESGGGLVKAGGSLRLSCAASGRNFWFNAMGWYRQAPGKERELVAAIRNRGGSTYYADSVKGRFTISRDNAKNTVYLQMNSLKPEDTAVYYCARAPEGTGGKYGYWGQGTQVTVSS | high polyreactivity |
| QVQLVESGGGLVQAGGSLRLSCAASGRIFYGYTMGWYRQAPGKERELVAAITRSTGSTYYADSVKGRFTISRDNAKNTVYLQMNSLKPEDTAVYYCAKYGYTNTPKSPMDYWGQGTQVTVSS | low polyreactivity |
| QVQLVESGGVLVQAGGSLRLSCAASGSIFDWYVMGWYRQAPGKERELVAAITSTGSTYYADSVKGRFTISLDNAKNTVYLQMNSLKPEDTAVYYCATSFYVYPSYYIMDYWGQGTQVTVSS | low polyreactivity |
| QVQLVESGGGLVQAGGSLRLSCAASGGTLVRYAMGWYRQAPGKERELVAAIDRDGDSTYYADSVKGRFTISRDNAKNTVYLQMNSLKPEDTAVYYCNADEIRQTDGYDYWGQGTQVTVSS | high polyreactivity |
| QVQLVESRGGLVQAGGSLRLSCAASGSTFLNYAMGWYRQAPGKERELVAAISGSTTRTYYAESVKGRFTISRDNAKNTVYLQMNSLKPEDTAVYYCAATRGRGGRDDYWGQGSQVTVSS | high polyreactivity |
| QVQRVESGGGLVQAGGSLRLSCAASGSIFEGYAMGWYRQAPGKQRELVARITSDDDSTYYADSVKGRFTISRDNAKFSVYLQMNSLIPEDTAVYYCNADYYWTSLAMDSWGQGTQVTVCS | low polyreactivity |
| QEQRVESGGGFVQAGGSLRLSCAASGFICVDYAMRWYRHARGNEREWVAAITYDGGSTYFADSVKARFTISRDNAKNTVNSQMNSLNPEDTALYYWAADYGYSQYILRQVRLEELDYSGQGTQVTVSS | low polyreactivity |
| QVQLVESGGGLVQAGGSLRLSCAASGSTFRYYAMGWYRQAPGKERELVAAISSSGGSTYYADSVKGRFTISRDNAKNTVYLQMNSLKPEDTAVYYCAARHYSYRVEYDYWGQGTQVTVSS | high polyreactivity |
| QVQLVESGGGLVQAGGSLRLSCAASGRTFGYNAMGWYSQAPGKERELVAAISYSGGRTYYADSVKGRFTISRDNAKNTVYLQMNSLKPEDTAVYYCAAKNPYKYDYWGQGTQVTVSS | high polyreactivity |
| QVQLVESGGGLVQAGGSLRLSCAASGSTFEANAMGWYRQAPGKERELVAVITRTGGSTYYADSVKGRFTISRDNAKNTVYLQMNSLKPVDTAVYYCAADGVVPGRFFWPAHEYDYWGQGTQVTVSS | low polyreactivity |
| QVQLVESGGGLVQAGGSLRLICAASGSILGTYAMGWYRQAPGKERELVAAITLSTDGTYYADSVKGRFTISRDNAKNTVYLQMNCLKPEDTAVYYFAAPWNWRWVTQWGYYVRADYYWGQGSQVTVSS | low polyreactivity |
| QVQLVESGGGLVQAGGSLRLSSAASGRIFSDYAMGWYRQAPGKERELVATITSGDSTNYADSVKGRFTISRDNAKNTVYLQMNSLKPEDTAVYYCNADRFADYDYWGQGTQVTVSS | low polyreactivity |
| QVQLVESGGGLVQAGGSLRLSCAASGLTFSYYVMGWYRQAPGKVRELVAAISSGGSTNYADSVKGRFTMSRDNAKNTVYLQLNSLKPEDTAVYYCAARNARADKQCTRWRNYWGQGTQVTVSS | low polyreactivity |
| QVQLVESGGGLVQAGGSLRLSCAASGCTFPRYAMGWYRQAPGKERELVAAISYSGGRTYYADSVKGRFTISRDNAKNTVYLQMNSLKPEDTAVYYCATEASTKRYDYWGQGTQVTVSS | high polyreactivity |
| QVQLVESGGGLVQAGGSLRLSCAASGSTFSAYGMGWYRQAPGKERELVARISWNGGSTYYADSVKGRFTISRDNAKNTVYLQMNSLKPEDTAVYYCNTELVGHPDWLSWRYYYWGQGTQVTVSS | low polyreactivity |
| QVQLVESGGGLVQAGGSLRLSCAASGITFKFYAMGWYRQAPGKERELVAVITSGGSTYYADSVKGRFTISRDNAKNTVYLQMTSLKPEDTAVFYCASGGNGLYRAYPFYYWGQGTQVTVSS | high polyreactivity |
| QVQLVESGGGLVQEGGSLRLSCAASGRNFGRYAMVRYRQAPGKERELVAAISSSGVATYYADSVKGRFTISRDNAKNTVYLQMNSLKPEDTEVYYCNSLYRVFYGFYYWGQGTQVTVSS | high polyreactivity |
| QVQLVDSGGGLVQAGGSLRLSCAASGRTFYDNDMGWYRQAPGKERELVARIRRGGNTKYADSVKGRFTISRDNAKNTVYLQMNSLKPEDTAVYYCNRDYGSKIYDYWGQGSQVTVSS | low polyreactivity |

| Sequence | polyreactivity (PSR sort gate) |
| --- | --- |
| QVQRVESGGGLVQAGGSLRLSCAASGRTLRYKGLYRQAPGKERELVAAITTGVSTNYADSVKGRFTISRDNAKNTVYLQMNSLKPEDTAVYYCAARARGTVYQYYYWGQGTQVTVSS | high polyreactivity |
| QVQLVESGGGLVQAAGSLRLSCAASGSIFETYAMGWYRHAPGKERELVAAITQSGGSTYYADSVKGRFTISRDNAKNTVYLQMNSLKPEDTEVYYCAADLFVWWNWGYEYWGQGTQVTVSS | low polyreactivity |
| QVQLVVSGGGLVQAGGSLRLSFAASGFIFRYYGGGWYTPAPGKERELVAAITSTGRRYYADSVKGRFTISRDNAKNTVYLQMNSLKPEDTAVYYCAKAWLRWCEDYWGQGTQVTVSS | low polyreactivity |
| QVQLVDSGGGLVQAGGSLRLSFAASGRIFAGYAMGWYRQAPGKERELVASIRYSGGSTYADSVKGRFTISRDNAKKTVYLQMNSLKPEDTAVYYSADGVQSVYNGEPGIILEFDYWGQGTQVTVSS | low polyreactivity |
| QVQLVESGGGLVQAGGSLRLSCADSGRIFADNAMGWYRHAPGKERELVAAITWSGGITFYADSVKGRFTISRDNAKKTVYLQMNSLKPEDTAVYYCATYGHRDTPYNYWGQGTQVTVSS | low polyreactivity |
| QVQLVESGGGLVQAGGSLRLSCAASGSTIDKYAMGWYRQAPGKERELVAAIRKSGGRTYYADSVKGRFTISRDNAKHTVYLQMYSLKQEDTAVYYCAAVLPNYYSVRYGYWGQGTQVSVSS | high polyreactivity |
| QVQLVESGGGLVQAGGSLRLSCAASGSIFPAYAMGWYIQDHGKERELLAAITRGGRTNYADSVKGRFTISRDNAKNTVYLQMNSLKPEDTAVYYCAARGYYAYRFDYWGQGTQVTVSS | high polyreactivity |
| QVQLVASGGGLVQAGGSLRLSCAASGSIFTHNALGWSRQAPGNERALVAAISSGGSTNYADSVKGRFTISRDNAKNTVYLQMNSLKPEDTAVYYCAKSIDGWYWRRRRYDYWGQGTQVTVSS | low polyreactivity |
| QVQLVESGGGLVQAGGSLRLSCAASGFTFRGNAMGWYRQAPGKERELVAAITRRGGSTYYADSVKGRFTISRDNAKNTVYLQMNSLKPEDTAVYYCARDSPRPPQSSRMAYWGQGTQVTVSS | high polyreactivity |
| QVQLVESGGGLVQAGGSLRLSCAASGSISQGNAMGWYRQAPGKERELVAAIRWTSGRTYYADSVKGRFTISRDNAKNTVSLEINSLKPEDPAVYYCAAYYVYYTPTLFDRDYWGQGTQVTVSS | low polyreactivity |
| QVQLVESGGGLVQAGGSLRLSCAASGSIFRKYAMGWYRQAPGKEREFVAVITTDGSTNYADSVKRRFTISRDNAKNTVYLQMNSLKPEDTAVYYCNAFRSSIGTDNDFWGQGTQVTVSS | low polyreactivity |
| QVQLVESGGGLVQAGGSLRLSCAASGSIFPYYTMGWYRQAPGKERELVAAISGSGTSTYYADSVKGRFTISRDNAKNTVYLQMNSLKPEDTAVYYCAKRFRYGYVNYYYWGQGTQVTVSS | low polyreactivity |
| QVQLVESGGGLVQAGGSLRLSCSASGSIFRSNAIGWYRQAPGKERELGAAISWSNDSTYYADSVKGRFTISRDNAKNTVYLQMNSLKPEDSAVYYCAAVGSGRYSGYDFLGQGTQVTVSS | high polyreactivity |
| QVQLGESGGGLVQAGGSLRLSCAASGSTFHPHAMGWYRQAPGKERELVATIRRTGDSTYDADSVKGRFTISRDHAKNTVNLQMNSLKPEDTAVYYCAARYYAESYRYYYWGQGTQGTVSS | high polyreactivity |
| QVQLVESCGGLVQAGGSLRLSCAASGFTFLGYAMGWYRQAPGKERELVAAITSGDSTDYADSVKGRFTISRDNAKNTVYLQMNSLKPEDTAVYYCNAELGSAYEYWGQGTQVTVSS | low polyreactivity |
| QVQLVESGGGLVQAGGSLRLSCAASGRILRVNAMGWYRQAPGKERELVATITFRGGSTYYADSVKGRCTISRDNAKNTVYLQMNSLKPEDTAVYSCAKVIYRYNETYDYWGQGTQVTVSS | high polyreactivity |
| QVQLVESGGGLVQAGGSLRLSCAASGLIIYYNAMGWYRQAPGKERELVAAITSGGSTYYADSVKGRFTISRDNAKNTVYLQMNSLKPEDTAVYYCAAVPASYRYPMYYWGQGTQVTVSS | low polyreactivity |
| QVQLVESVGGLVQAGGSLRLTCAASGLILRRYAMGWYRQAPGKEELVAAITSDASTYYADSVKGRFTISRYNAKNTVYLQMNSLKPEDPAVYYCAADTYDNDYYYWGQGTQVTVSS | high polyreactivity |
| QVQLVDSGGGLVQAGGSLRLSCAASGRTFAYNDMGWYRQAPGKERELVAAISWSDGTTYYADSVKWRFTISRDNAKNTVYLQMNRLKPEDTAVYYCAAVSIYWGQGTQVTVSS | low polyreactivity |
| PVQLVESGGGLVQAGGSLRLSCAASGFIFDSYPMGWYRQAPGKERELVAAISYSAGSTSYADSVKGRFTISRDNAKNTVYLQMKSLKPEDTAVYYCNARYYPLYSNSYDSWGQGTQVTVSS | low polyreactivity |
| QLQLVESGGGLVQAGGSLRLSCAASGLTSPGNAMGWYRQAPGKEMELVAAISSGGNTYYADSVKGRFTISRDNAKNTVYLQMNSLKPEDTAVYYCNAGGGTNYGSGYWFGYYYWGQGSQVTVSS | low polyreactivity |
